This is an account of results in publication PMC3919598.

The target in the assay is MUS81-EME1 complex (human) (UniProt Q96NY9).
Sequence of UniProt Q96NY9 (Q96NY9 whole entry, chain 1 of 2): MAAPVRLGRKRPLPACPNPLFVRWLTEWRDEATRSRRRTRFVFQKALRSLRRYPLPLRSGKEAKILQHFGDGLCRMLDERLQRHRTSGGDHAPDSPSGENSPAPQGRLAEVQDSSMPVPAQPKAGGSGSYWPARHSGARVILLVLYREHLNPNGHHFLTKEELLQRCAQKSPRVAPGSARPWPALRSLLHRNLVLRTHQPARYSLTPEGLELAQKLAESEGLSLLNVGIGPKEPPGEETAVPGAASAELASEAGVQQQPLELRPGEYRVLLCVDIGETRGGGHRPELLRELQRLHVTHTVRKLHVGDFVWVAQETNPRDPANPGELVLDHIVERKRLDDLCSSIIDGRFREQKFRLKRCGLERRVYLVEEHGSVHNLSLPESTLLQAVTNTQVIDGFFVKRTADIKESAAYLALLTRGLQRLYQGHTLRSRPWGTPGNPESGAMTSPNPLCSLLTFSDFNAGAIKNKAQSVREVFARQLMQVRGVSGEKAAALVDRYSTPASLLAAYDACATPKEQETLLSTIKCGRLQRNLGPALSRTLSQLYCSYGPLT
Sequence of UniProt Q96NY9 (Q96AY2 whole entry, chain 2 of 2, further chain): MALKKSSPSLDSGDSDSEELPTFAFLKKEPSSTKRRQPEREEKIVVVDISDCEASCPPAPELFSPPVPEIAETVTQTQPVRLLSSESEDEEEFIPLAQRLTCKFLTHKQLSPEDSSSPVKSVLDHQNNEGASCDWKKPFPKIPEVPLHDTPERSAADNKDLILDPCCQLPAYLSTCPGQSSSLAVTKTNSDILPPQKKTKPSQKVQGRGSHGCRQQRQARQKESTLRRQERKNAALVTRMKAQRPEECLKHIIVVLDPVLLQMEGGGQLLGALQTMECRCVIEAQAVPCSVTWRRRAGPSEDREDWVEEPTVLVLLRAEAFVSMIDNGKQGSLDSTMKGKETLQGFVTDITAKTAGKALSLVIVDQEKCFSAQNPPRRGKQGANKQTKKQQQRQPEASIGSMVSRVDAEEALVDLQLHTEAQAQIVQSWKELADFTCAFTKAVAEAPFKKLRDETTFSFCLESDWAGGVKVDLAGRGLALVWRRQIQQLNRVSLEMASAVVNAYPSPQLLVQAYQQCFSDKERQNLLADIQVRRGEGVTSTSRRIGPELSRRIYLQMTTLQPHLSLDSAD

B1: Fanconi anemia complementation group A protein (FANCA) (natural protein)
chain: MSDSWVPNSASGQDPGGRRRAWAELLAGRVKREKYNPERAQKLKESAVRLLRSHQDLNALLLEVEGPLCKKLSLSKVIDCDSSEAYANHSSSFIGSALQDQASRLGVPVGILSAGMVASSVGQICTAPAETSHPVLLTVEQRKKLSSLLEFAQYLLAHSMFSRLSFCQELWKIQSSLLLEAVWHLHVQGIVSLQELLESHPDMHAVGSWLFRNLCCLCEQMEASCQHADVARAMLSDFVQMFVLRGFQKNSDLRRTVEPEKMPQVTVDVLQRMLIFALDALAAGVQEESSTHKIVRCWFGVFSGHTLGSVISTDPLKRFFSHTLTQILTHSPVLKASDAVQMQREWSFARTHPLLTSLYRRLFVMLSAEELVGHLQEVLETQEVHWQRVLSFVSALVVCFPEAQQLLEDWVARLMAQAFESCQLDSMVTAFLVVRQAALEGPSAFLSYADWFKASFGSTRGYHGCSKKALVFLFTFLSELVPFESPRYLQVHILHPPLVPGKYRSLLTDYISLAKTRLADLKVSIENMGLYEDLSSAGDITEPHSQALQDVEKAIMVFEHTGNIPVTVMEASIFRRPYYVSHFLPALLTPRVLPKVPDSRVAFIESLKRADKIPPSLYSTYCQACSAAEEKPEDAALGVRAEPNSAEEPLGQLTAALGELRASMTDPSQRDVISAQVAVISERLRAVLGHNEDDSSVEISKIQLSINTPRLEPREHMAVDLLLTSFCQNLMAASSVAPPERQGPWAALFVRTMCGRVLPAVLTRLCQLLRHQGPSLSAPHVLGLAALAVHLGESRSALPEVDVGPPAPGAGLPVPALFDSLLTCRTRDSLFFCLKFCTAAISYSLCKFSSQSRDTLCSCLSPGLIKKFQFLMFRLFSEARQPLSEEDVASLSWRPLHLPSADWQRAALSLWTHRTFREVLKEEDVHLTYQDWLHLELEIQPEADALSDTERQDFHQWAIHEHFLPESSASGGCDGDLQAACTILVNALMDFHQSSRSYDHSENSDLVFGGRTGNEDIISRLQEMVADLELQQDLIVPLGHTPSQEHFLFEIFRRRLQALTSGWSVAASLQRQRELLMYKRILLRLPSSVLCGSSFQAEQPITARCEQFFHLVNSEMRNFCSHGGALTQDITAHFFRGLLNACLRSRDPSLMVDFILAKCQTKCPLILTSALVWWPSLEPVLLCRWRRHCQSPLPRELQKLQEGRQFASDFLSPEAASPAPNPDWLSAAALHFAIQQVREENIRKQLKKLDCEREELLVFLFFFSLMGLLSSHLTSNSTTDLPKAFHVCAAILECLEKRKISWLALFQLTESDLRLGRLLLRVAPDQHTRLLPFAFYSLLSYFHEDAAIREEAFLHVAVDMYLKLVQLFVAGDTSTVSPPAGRSLELKGQGNPVELITKARLFLLQLIPRCPKKSFSHVAELLADRGDCDPEVSAALQSRQQAAPDADLSQEPHLF
With B1, the MUS81-EME1-mediated incision of psoralen ICL-damaged 3' ssDNA branch substrate (1.5 nM MUS81-EME1; FANCA 0-20 nM), fold stimulation was 14 fold; the MUS81-EME1-mediated incision of undamaged DNA (1.5 nM MUS81-EME1; FANCA 0-20 nM): enhanced up to 5 nM FANCA (Phase I), inhibited from 10 to 20 nM and abrogated at 20 nM FANCA (Phase II) was 3 fold.
